These results are taken from PMC4643883.

For test [1], the target named is Drosophila Telomere Loss / Modigliani (DTL/Moi), D. melanogaster (Drosophila melanogaster) (UniProt B7Z0L8). Description: SEC; combined heparin-sepharose fractions of co-expressed Ver and DTL/Moi; Superdex 200 10/300 GL; 20 mM Tris pH 7.5, 100 mM NaCl.
The target is the same in test [2]. Described as above. This is another data set of the same source.

Where two headings read alike, the source gives them in different places.

UniProt B7Z0L8, sequence (B7Z0L8 whole entry): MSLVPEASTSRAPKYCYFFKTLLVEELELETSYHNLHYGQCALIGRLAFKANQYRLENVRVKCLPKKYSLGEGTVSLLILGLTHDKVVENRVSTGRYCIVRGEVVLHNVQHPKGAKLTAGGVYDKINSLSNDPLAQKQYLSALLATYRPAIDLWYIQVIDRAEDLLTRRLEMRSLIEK

In general, stoichiometry N refers to a count of units in the complex or per binding partner. On to “D. yakuba Verrocchio (Ver) (natural protein)”, for which the stoichiometry N in test [1] came to 1.

B1: Verrocchio (Ver), D. melanogaster (natural protein)
chain: MDFNQSFEDIESQLDNFVIRKNQQSEKSTGKCGPEVHDNVPLTISQIERATQDPENENVFITDDVHPIHFCTCIIYAFVTGNGTHNESFMKFMIDDGTGSLEASITKKPFNGRVISSLYSEASSLASSEAYKSIAVSMMRLLQVSMEYIDPTRISRGHSLFLRGRPNRFRGKMGLDAFQFFIDSGRSRNMEIGFVDYLTDWQRRHKTMQNTTNK
As to B1, the stoichiometry N in test [2] was determined as 1.
